Square brackets hold non-standard residues; d marks the D form. Peptide text beside a SMILES is read from it. * marks the point of attachment. DOTA = O=C(O)CN1CCN(CC(=O)O)CCN(CC(=O)*)CCN(CC(=O)O)CC1; Palmitoyl = CCCCCCCCCCCCCCCC(=O)*
Legend:
Jurkat xenografts [1] = experiment: in vivo; conditions: female, athymic nude-Foxn1^nu/Foxn1^+, mouse, iv, 200 pmol, 1 h
Experimental: Quantification of the total body distribution of ^177Lu-7 and ^68Ga-7 was performed in Jurkat xenografted mice after intravenous injection of 100 μL, 200 pmol, with […], respectively (n = 5). The mice were sacrificed at 1 h p.i. ^177Lu-7 and ^68Ga-7 accumulated mainly in the kidneys (83.1 ± 25.5 and 75.6 ± 30.3%IA/g, respectively, p = 0.59), liver (5.19 ± 1.08 and 4.08 ± 1.05%IA/g, respectively, p = 0.07) and tumor (2.25 ± 0.43 and 2.24 ± 0.57%IA/g, respectively, p = 0.97), as already seen in the SPECT/CT and PET/CT images (Figures 6 and 7). Uptake in the tumor was lower than for the kidneys and liver but higher as in all other tissues investigated. […] The uptake seen in the liver might be attributed, at least partially, to the fact that CXCR4 is constitutively expressed in the sinusoidal endothelial cells of the murine liver[38] or could be related to another yet-unknown mechanism previously reported for other CXCR4-targeting probes.[11],[39] Regretfully, there are no direct measurements available for the affinity of ^177Lu-7 with the murine CXCR4 (mCXCR4). This is relevant for assessing its total body distribution. However, we have shown that EPI-X4 and EPI-X4 derivatives are active in mouse models of inflammatory diseases[22],[25] and cancer.[40] More specifically, EPI-X4 derivatives such as JM#21 reduced immune cell influx in lungs of mice suffering from allergic asthma or reduced skin inflammation in a murine model of atopic dermatitis upon topical administration. […] Thus, we speculate that the DOTA conjugate of JM#173 (ligand-7) also cross-reacts to the mCXCR4. […] Last, but not the least, the uptake in the kidneys was predominant, and given the highly hydrophilic character of ^177Lu-7, is attributed, at least partially, to its excretion via this path.
(§1) The experimental protocol involving animals was approved by the Veterinary Office (Department of Health) of the Cantonal Basel-Stadt (Approval No. 30515) in accordance with the Swiss regulations for animal treatment. Female athymic nude-Foxn1^nu/Foxn1^+ mice (Envigo, The Netherlands), 4–6 weeks old, were injected subcutaneously with 10^7 Jurkat cells in a 200 μL (1:1) mixture of PBS and Matrigel (CorningMatrigelMembrane matrix, Fischer Scientific, Germany) on the right shoulder. The tumors were allowed to grow for 3–4 weeks before commencement of the experiments.
Quantitative biodistribution studies of ^177Lu-7 (100 μL, 200 pmol, 0.8–1 MBq) and ^68Ga-7 (100 μL, 200 pmol, 2–3 MBq) were performed after intravenous injection of the radioligand via the tail vein on Jurkat xenografts. […] 1 h after injection of the radioligand, mice were sacrificed, organs of interest and blood were collected, rinsed of excess blood, blotted dry, weighed, and counted in a γ-counter. The samples were counted against a suitable diluted aliquot of the injected solution as the standard and the results are expressed as percentage injected activity per gram of tissue (%IA/g). Statistical analysis between selected organs was performed by Welch’s t-test and p values <0.05 were considered statistically significant.

Jurkat xenografts [2] = type: in vivo, mouse; conditions: 1 h p.i., SPECT/CT or PET/CT
Experimental: The ability of the ^177Lu ligands to target CXCR4 in vivo was assessed by SPECT/CT imaging in Jurkat xenografts. […] 1 h after injection, the remaining amount of radioligand in the body (and vice versa, the washout) was quantified by measuring the total body activity (mouse) in a dose calibrator. The % of the radioligand remaining in the body after 1 h is reported in Figure 6A as % of the remaining activity in reference to the injected activity (100%).
Figure 6 SPECT/CT images as maximum intensity projections (MIPs) of Jurkat tumor-bearing mice at 1 h p.i. of ^177Lu-labeled ligands (200 pmol, ∼15 MBq). […] (B) Same SPECT/CT images of ^177Lu-1, ^177Lu-2, ^177Lu-5, and ^177Lu-6, adapted in a lower scale. T: tumor, L: liver, and K: kidneys. […] TEXT PRINTED IN THE PICTURE: (A) ^177Lu-1: Remaining Activity (% injected): 6 % | (A) ^177Lu-2: Remaining Activity (% injected): 7 % | (A) ^177Lu-5: Remaining Activity (% injected): 7 % | (A) ^177Lu-6: Remaining Activity (% injected): 8 % | (A) ^177Lu-7: Remaining Activity (% injected): 55 % | (A) ^177Lu-9: Remaining Activity (% injected): 94 %
as §1
Nude mice bearing Jurkat xenografts were intravenously injected via the tail vein with ∼15 MBq (200 pmol) of the ^177Lu ligands and 8 MBq (200 pmol) of ^68Ga-7 were euthanized 1 h post injection (p.i.). The radioactivity in the syringe before and after injection was measured followed by measuring the amount of radioactivity remaining in the sacrificed mice. […]

CXCR4 [3] = target: T1, CXCR4 (Homo sapiens, UniProt P61073); experiment: Antibody-competition assay (anti-CXCR4 clone 12G5) on Ghost-CXCR4 cells; type: binding; conditions: competition with CXCR4 antibody clone 12G5, Ghost-CXCR4 cells, 4 °C, 2 h; mean ± SEM
T1 construct: Jurkat cells, which are naturally expressing high levels of CXCR4; host or cells: Jurkat, clone E6-1
T1 sequence (P61073 whole entry): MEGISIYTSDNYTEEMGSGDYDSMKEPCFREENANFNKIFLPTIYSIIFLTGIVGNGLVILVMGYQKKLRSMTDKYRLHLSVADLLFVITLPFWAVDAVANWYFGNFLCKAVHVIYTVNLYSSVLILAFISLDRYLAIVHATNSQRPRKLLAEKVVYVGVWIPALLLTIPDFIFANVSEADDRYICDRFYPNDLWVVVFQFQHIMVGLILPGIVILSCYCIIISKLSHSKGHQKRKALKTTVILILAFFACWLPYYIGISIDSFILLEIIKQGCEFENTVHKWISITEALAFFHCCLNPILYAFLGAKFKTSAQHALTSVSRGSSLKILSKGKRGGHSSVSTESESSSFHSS
Experimental: (§2) Binding of the DOTA-conjugated EPI-X4 derivatives to CXCR4 was assessed by an antibody-competition assay[26] using Ghost cells stably transfected with CXCR4, as well as on Jurkat cells, which are naturally expressing high levels of CXCR4. […] The buffer was removed and plates were precooled at 4 °C. Ligands were serially diluted in PBS. The antibody (clone 12G5, Allophycocyanin labeled, BD Pharmingen #555976) was diluted in PBS containing 1% FBS. The antibody was used at a fixed concentration close to its KD. 15 μL of compound and immediately afterward 15 μL of the antibody were added to the cells. Plates were incubated at 4 °C in the dark for 2 h allowing to establish an equilibrium binding. Cells were then washed twice with PBS containing 1% FBS and fixed with 2% paraformaldehyde. Antibody binding was analyzed by flow cytometry (FACS CytoFLEX; Beckman Coulter).

CXCR4 [4] = target: T1, CXCR4; experiment: Antibody-competition assay (anti-CXCR4 clone 12G5) on Jurkat cells; type: binding; conditions: competition with CXCR4 antibody clone 12G5, Jurkat cells, 4 °C, 2 h; mean ± SEM
Experimental: as §2

## CC[C@@H](C)[C@@H](N)C(=O)N[C@@H](CC(C)C)C(=O)N[C@@H](CCCNC(=N)N)C(=O)N[C@@H](Cc1c[nH]c2ccccc12)C(=O)N[C@@H](CO)C(=O)N[C@@H](CCCNC(=N)N)C(=O)N[C@@H](CCCCN)C(=O)N[C@@H](CCCCNC(=O)CN1CCN(CC(=O)O)CCN(CC(=O)O)CCN(CC(=O)O)CC1)C(N)=O [^68Ga-7, metal not drawn] (H-[dI]LRWSRKK(DOTA)-NH2; N-terminus assumed)
Jurkat xenografts [1]
  uptake in adrenal: 2.69 ± 0.94 % IA/g
  uptake in femur: 1.29 ± 0.43 % IA/g
  uptake in heart: 0.25 ± 0.09 % IA/g
  uptake in intestine: 0.59 ± 0.18 % IA/g
  uptake in lung: 1.78 ± 0.81 % IA/g
  uptake in muscle: 0.44 ± 0.26 % IA/g
  uptake in pancreas: 0.20 ± 0.11 % IA/g
  uptake in spleen: 0.85 ± 0.29 % IA/g
  uptake in stomach: 0.41 ± 0.16 % IA/g
Jurkat xenografts [2]
  visualization of CXCR4-expressing tumor xenograft by imaging: visualized the CXCR4-expressing tumor xenograft

## CC[C@H](C)[C@H](N)C(=O)N[C@@H](CC(C)C)C(=O)N[C@@H](CCCNC(=N)N)C(=O)N[C@@H](Cc1c[nH]c2ccccc12)C(=O)N[C@@H](CO)C(=O)N[C@@H](CCCNC(=N)N)C(=O)N[C@@H](CCCCN)C(=O)N[C@@H](CC(C)C)C(=O)N1CCC[C@H]1C(=O)N[C@@H](CSSC[C@H](NC(=O)[C@@H]1CCCN1C(=O)[C@H](CC(C)C)NC(=O)[C@H](CCCCN)NC(=O)[C@H](CCCNC(=N)N)NC(=O)[C@H](CO)NC(=O)[C@H](Cc1c[nH]c2ccccc12)NC(=O)[C@H](CCCNC(=N)N)NC(=O)[C@H](CC(C)C)NC(=O)[C@@H](N)[C@@H](C)CC)C(=O)N[C@H](C(=O)N[C@@H](CO)C(=O)N[C@@H](CCCCNC(=O)CN1CCN(CC(=O)O)CCN(CC(=O)O)CCN(CC(=O)O)CC1)C(=O)O)C(C)C)C(=O)N[C@H](C(=O)N[C@@H](CO)C(=O)N[C@@H](CCCCNC(=O)CN1CCN(CC(=O)O)CCN(CC(=O)O)CCN(CC(=O)O)CC1)C(=O)O)C(C)C [^natLu-1 dimer, metal not drawn]
CXCR4 [3]
  IC50: 225 ± 111 nM
CXCR4 [4]
  IC50: 122 ± 63 nM

## CC[C@H](C)[C@H](N)C(=O)N[C@@H](CC(C)C)C(=O)N[C@@H](CCCNC(=N)N)C(=O)N[C@@H](Cc1c[nH]c2ccccc12)C(=O)N[C@@H](CO)C(=O)N[C@@H](CCCNC(=N)N)C(=O)N[C@@H](CCCCN)C(=O)N[C@@H](CC(C)C)C(=O)N1CCC[C@H]1C(=O)N[C@@H](CO)C(=O)N[C@H](C(=O)N[C@@H](CO)C(=O)N[C@@H](CCCCNC(=O)CN1CCN(CC(=O)O)CCN(CC(=O)O)CCN(CC(=O)O)CC1)C(=O)O)C(C)C [^natLu-2, metal not drawn] (H-ILRWSRKLPSVSK(DOTA)-OH; N-terminus and C-terminus assumed)
CXCR4 [3]
  IC50: 122 ± 45 nM

## CC(C)C[C@@H](N)C(=O)N[C@@H](CC(C)C)C(=O)N[C@@H](CCCNC(=N)N)C(=O)N[C@@H](Cc1c[nH]c2ccccc12)C(=O)N[C@@H](CO)C(=O)N[C@@H](CCCNC(=N)N)C(=O)N[C@@H](CCCCN)C(=O)N[C@@H](CC(C)C)C(=O)N1CCC[C@H]1C(=O)N[C@@H](CSSC[C@H](NC(=O)[C@@H]1CCCN1C(=O)[C@H](CC(C)C)NC(=O)[C@H](CCCCN)NC(=O)[C@H](CCCNC(=N)N)NC(=O)[C@H](CO)NC(=O)[C@H](Cc1c[nH]c2ccccc12)NC(=O)[C@H](CCCNC(=N)N)NC(=O)[C@H](CC(C)C)NC(=O)[C@H](N)CC(C)C)C(=O)N[C@H](C(=O)N[C@@H](CO)C(=O)N[C@@H](CCCCNC(=O)CN1CCN(CC(=O)O)CCN(CC(=O)O)CCN(CC(=O)O)CC1)C(=O)O)C(C)C)C(=O)N[C@H](C(=O)N[C@@H](CO)C(=O)N[C@@H](CCCCNC(=O)CN1CCN(CC(=O)O)CCN(CC(=O)O)CCN(CC(=O)O)CC1)C(=O)O)C(C)C [^natLu-6 dimer, metal not drawn]
CXCR4 [3]
  IC50: 763 ± 135 nM
CXCR4 [4]
  IC50: 662 ± 160 nM

## CCCCCCCCCCCCCCCC(=O)NCCCC[C@H](NC(=O)[C@H](CCCCN)NC(=O)[C@H](CO)NC(=O)[C@H](Cc1c[nH]c2ccccc12)NC(=O)[C@H](CCCNC(=N)N)NC(=O)[C@@H](NC(=O)[C@@H](N)[C@@H](C)CC)C(C)C)C(=O)N[C@H](C(=O)N1CCC[C@H]1C(=O)N[C@@H](CS)C(=O)N[C@H](C(=O)N[C@@H](CO)C(=O)N[C@@H](CCCCNC(=O)CN1CCN(CC(=O)O)CCN(CC(=O)O)CCN(CC(=O)O)CC1)C(=O)O)C(C)C)C(C)C [ligand-8, I^1VRWSKK^7(Pal)VPCS^12K(DOTA)] (H-IVRWSKK(Palmitoyl)VPCVSK(DOTA)-OH; N-terminus and C-terminus assumed)
CXCR4 [3]
  IC50: 15 ± 5 nM
CXCR4 [4]
  IC50: 4 ± 2 nM
